In the supplement of paper PMC11136658:

Test system: peptide library, one residue held at a place counted from the Y acceptor
Assay: relative phosphorylation of the sub-library (ratio to the mean residue at this position); higher = residue favoured
Procedure, shortened: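 Peptide library mixtures, biotinylated and centred on Tyr, each fixed one residue at one position from −5 to +5. Purified recombinant kinases were incubated with them for 90 min in 384-well plates alongside 50 μM ATP and γ-32P-ATP, and the captured, rinsed peptides on streptavidin membranes were measured by phosphorimaging and ImageQuant. Normalization divided each position's intensities by the sum of its 18 randomized residues (16 for the Ser/Thr-free library) and multiplied by that number, so that values give phosphorylation relative to the mean randomized residue.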

Chain of ROS1, construct: aa1883-end, human (P08922 1883-2347, looked up): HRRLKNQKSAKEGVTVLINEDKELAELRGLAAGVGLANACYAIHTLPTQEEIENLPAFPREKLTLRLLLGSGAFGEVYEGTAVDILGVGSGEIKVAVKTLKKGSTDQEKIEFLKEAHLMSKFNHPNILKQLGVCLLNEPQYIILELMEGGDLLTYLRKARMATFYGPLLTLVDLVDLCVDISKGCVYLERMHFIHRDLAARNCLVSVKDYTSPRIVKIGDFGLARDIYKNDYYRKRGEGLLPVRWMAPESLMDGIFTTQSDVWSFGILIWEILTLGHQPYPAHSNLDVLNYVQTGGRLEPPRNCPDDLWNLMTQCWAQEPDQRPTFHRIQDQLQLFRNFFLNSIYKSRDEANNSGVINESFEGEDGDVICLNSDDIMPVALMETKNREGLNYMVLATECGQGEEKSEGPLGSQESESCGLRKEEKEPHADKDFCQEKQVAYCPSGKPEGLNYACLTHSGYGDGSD

ROS1, construct: aa1883-end, human (from UniProt P08922)
relative phosphorylation
Conditions | at +1 | at +2 | at +3 | at +4 | at +5 | at -1 | at -2 | at -3 | at -4 | at -5
A fixed | 1.4 | 0.764 | 0.709 | 0.96 | 0.93 | 1.04 | 1.06 | 0.892 | 1.22 | 1.17
D fixed | 0.482 | 0.396 | 0.211 | 0.611 | 0.583 | 1.09 | 0.882 | 0.994 | 1.09 | 0.993
E fixed | 0.947 | 0.547 | 0.174 | 0.772 | 0.512 | 1.09 | 1.1 | 1.04 | 1.18 | 0.873
F fixed | 1.06 | 1.19 | 1.65 | 1.19 | 1.47 | 0.882 | 0.738 | 0.932 | 0.878 | 0.868
G fixed | 0.696 | 0.581 | 0.722 | 1.09 | 1.1 | 0.835 | 1.2 | 1.2 | 1.36 | 1.31
H fixed | 1.07 | 0.954 | 1.67 | 1.13 | 0.93 | 1.21 | 1.07 | 1.09 | 0.888 | 0.99
I fixed | 1.33 | 0.963 | 1.57 | 0.865 | 0.776 | 1.11 | 0.797 | 0.727 | 0.827 | 0.878
K fixed | 0.501 | 1.3 | 0.858 | 1.27 | 1.3 | 0.592 | 1.01 | 0.968 | 1.04 | 1.08
L fixed | 1.37 | 1.41 | 1.49 | 0.918 | 0.831 | 1.33 | 0.872 | 0.863 | 0.995 | 0.882
M fixed | 1.36 | 1.17 | 1.33 | 1.07 | 0.873 | 0.975 | 0.733 | 0.828 | 0.855 | 0.922
N fixed | 0.551 | 1.04 | 0.581 | 0.88 | 0.981 | 1.29 | 1.1 | 1.2 | 0.935 | 1.05
P fixed | 0.446 | 0.904 | 0.532 | 0.972 | 1.64 | 1.45 | 1.29 | 1.23 | 1.19 | 1.24
Q fixed | 1.09 | 0.94 | 0.669 | 1.14 | 0.958 | 0.964 | 1.16 | 0.915 | 1.11 | 0.963
R fixed | 0.649 | 1.31 | 1.07 | 1.31 | 1.25 | 0.533 | 1.1 | 1.09 | 0.982 | 1.12
S fixed | 1.26 | 1.01 | 0.793 | 0.979 | 1.2 | 0.975 | 1.18 | 1.17 | 0.898 | 0.967
T fixed | 1.25 | 0.937 | 0.922 | 0.87 | 0.894 | 0.906 | 1.02 | 1.07 | 0.724 | 0.93
V fixed | 1.42 | 1.08 | 1.27 | 0.988 | 0.622 | 0.976 | 0.906 | 0.824 | 0.859 | 0.879
W fixed | 1.1 | 1.5 | 1.77 | 0.989 | 1.16 | 0.762 | 0.774 | 0.976 | 0.972 | 0.891
pThr fixed | 0.802 | 0.447 | 0.162 | 0.305 | 0.359 | 0.848 | 0.859 | 0.877 | 0.86 | 0.871
pTyr fixed | 1.06 | 0.646 | 0.306 | 0.529 | 0.409 | 1.74 | 1.03 | 1.15 | 1.09 | 0.896
